This is an account of results in patent US20260049138A1 (Chugai, published 2026).

B1: GLS3000 N30E one-arm antibody (antibody, human IgG1, kappa, L234A L235A, N297A, name in Kabat numbering)
heavy: QVQLVESGGGVVQPGRSLRLSCAASGFTFSNAWMHWVRQAPGKGLEWVAQIKAKSNNYATYYAESVKGRFTISRDDSKNSLYLQMNSLKTEDTAVYYCRYVHYGAYYGVDAWGQGTTVTVSSASTKGPSVFPLAPSSKSTSGGTAALGCLVKDYFPEPVTVSWNSGALTSGVHTFPAVLQSSGLYSLSSVVTVPSSSLGTQTYICNVNHKPSNTKVDKKVEPKSCDKTHTCPPCPAPEAAGGPSVFLFPPKPKDTLMISRTPEVTCVVVDVSHEDPEVKFNWYVDGVEVHNAKTKPREEQYASTYRVVSVLTVLHQDWLNGKEYKCKVSNKALPAPIEKTISKAKGQPREPQVYTLPPSRCELTKNQVSLSCAVKGFYPSDIAVEWESNGQPENNYKTTPPVLDSDGSFFLVSKLTVDKSRWQQGNVFSCSVMHEALHNHYTQKSLSLSPDYKDDDDK
chain: EPKSSDKTHTCPPCPAPELLGGPSVFLFPPKPKDTLMISRTPEVTCVVVDVSHEDPEVKFNWYVDGVEVHNAKTKPREEQYNSTYRVVSVLTVLHQDWLNGKEYKCKVSNKALPAPIEKTISKAKGQPREPQVCTLPPSRDELTKNQVSLWCLVKGFYPSDIAVEWESNGQPENNYKTTPPVLDSDGSFFLYSKLTVDKSRWQQGNVFSCSVMHEALHNRYTQKSLSLSP
light: DIVMTQSPLSLPVTPGEPASISCRSSQSLVHSNRETYLHWYQQKPGQAPRLLIYKVSNRFSGVPDRFSGSGSGTDFTLKISRVEAEDVGVYYCGQGTQVPYTFGQGTKLEIKRTVAAPSVFIFPPSDEQLKSGTASVVCLLNNFYPREAKVQWKVDNALQSGNSQESVTEQDSKDSTYSLSSTLTLSKADYEKHKVYACEVTHQGLSSPVTKSFNRGEC
B2: GLS3000 N30I one-arm antibody (antibody, human IgG1, kappa, L234A L235A, N297A, name in Kabat numbering)
heavy: QVQLVESGGGVVQPGRSLRLSCAASGFTFSNAWMHWVRQAPGKGLEWVAQIKAKSNNYATYYAESVKGRFTISRDDSKNSLYLQMNSLKTEDTAVYYCRYVHYGAYYGVDAWGQGTTVTVSSASTKGPSVFPLAPSSKSTSGGTAALGCLVKDYFPEPVTVSWNSGALTSGVHTFPAVLQSSGLYSLSSVVTVPSSSLGTQTYICNVNHKPSNTKVDKKVEPKSCDKTHTCPPCPAPEAAGGPSVFLFPPKPKDTLMISRTPEVTCVVVDVSHEDPEVKFNWYVDGVEVHNAKTKPREEQYASTYRVVSVLTVLHQDWLNGKEYKCKVSNKALPAPIEKTISKAKGQPREPQVYTLPPSRCELTKNQVSLSCAVKGFYPSDIAVEWESNGQPENNYKTTPPVLDSDGSFFLVSKLTVDKSRWQQGNVFSCSVMHEALHNHYTQKSLSLSPDYKDDDDK
chain: EPKSSDKTHTCPPCPAPELLGGPSVFLFPPKPKDTLMISRTPEVTCVVVDVSHEDPEVKFNWYVDGVEVHNAKTKPREEQYNSTYRVVSVLTVLHQDWLNGKEYKCKVSNKALPAPIEKTISKAKGQPREPQVCTLPPSRDELTKNQVSLWCLVKGFYPSDIAVEWESNGQPENNYKTTPPVLDSDGSFFLYSKLTVDKSRWQQGNVFSCSVMHEALHNRYTQKSLSLSP
light: DIVMTQSPLSLPVTPGEPASISCRSSQSLVHSNRITYLHWYQQKPGQAPRLLIYKVSNRFSGVPDRFSGSGSGTDFTLKISRVEAEDVGVYYCGQGTQVPYTFGQGTKLEIKRTVAAPSVFIFPPSDEQLKSGTASVVCLLNNFYPREAKVQWKVDNALQSGNSQESVTEQDSKDSTYSLSSTLTLSKADYEKHKVYACEVTHQGLSSPVTKSFNRGEC
B3: GLS3000 N30K one-arm antibody (antibody, human IgG1, kappa, L234A L235A, N297A, name in Kabat numbering)
heavy: QVQLVESGGGVVQPGRSLRLSCAASGFTFSNAWMHWVRQAPGKGLEWVAQIKAKSNNYATYYAESVKGRFTISRDDSKNSLYLQMNSLKTEDTAVYYCRYVHYGAYYGVDAWGQGTTVTVSSASTKGPSVFPLAPSSKSTSGGTAALGCLVKDYFPEPVTVSWNSGALTSGVHTFPAVLQSSGLYSLSSVVTVPSSSLGTQTYICNVNHKPSNTKVDKKVEPKSCDKTHTCPPCPAPEAAGGPSVFLFPPKPKDTLMISRTPEVTCVVVDVSHEDPEVKFNWYVDGVEVHNAKTKPREEQYASTYRVVSVLTVLHQDWLNGKEYKCKVSNKALPAPIEKTISKAKGQPREPQVYTLPPSRCELTKNQVSLSCAVKGFYPSDIAVEWESNGQPENNYKTTPPVLDSDGSFFLVSKLTVDKSRWQQGNVFSCSVMHEALHNHYTQKSLSLSPDYKDDDDK
chain: EPKSSDKTHTCPPCPAPELLGGPSVFLFPPKPKDTLMISRTPEVTCVVVDVSHEDPEVKFNWYVDGVEVHNAKTKPREEQYNSTYRVVSVLTVLHQDWLNGKEYKCKVSNKALPAPIEKTISKAKGQPREPQVCTLPPSRDELTKNQVSLWCLVKGFYPSDIAVEWESNGQPENNYKTTPPVLDSDGSFFLYSKLTVDKSRWQQGNVFSCSVMHEALHNRYTQKSLSLSP
light: DIVMTQSPLSLPVTPGEPASISCRSSQSLVHSNRKTYLHWYQQKPGQAPRLLIYKVSNRFSGVPDRFSGSGSGTDFTLKISRVEAEDVGVYYCGQGTQVPYTFGQGTKLEIKRTVAAPSVFIFPPSDEQLKSGTASVVCLLNNFYPREAKVQWKVDNALQSGNSQESVTEQDSKDSTYSLSSTLTLSKADYEKHKVYACEVTHQGLSSPVTKSFNRGEC
B4: GLS3000 N30F one-arm antibody (antibody, human IgG1, kappa, L234A L235A, N297A, name in Kabat numbering)
heavy: QVQLVESGGGVVQPGRSLRLSCAASGFTFSNAWMHWVRQAPGKGLEWVAQIKAKSNNYATYYAESVKGRFTISRDDSKNSLYLQMNSLKTEDTAVYYCRYVHYGAYYGVDAWGQGTTVTVSSASTKGPSVFPLAPSSKSTSGGTAALGCLVKDYFPEPVTVSWNSGALTSGVHTFPAVLQSSGLYSLSSVVTVPSSSLGTQTYICNVNHKPSNTKVDKKVEPKSCDKTHTCPPCPAPEAAGGPSVFLFPPKPKDTLMISRTPEVTCVVVDVSHEDPEVKFNWYVDGVEVHNAKTKPREEQYASTYRVVSVLTVLHQDWLNGKEYKCKVSNKALPAPIEKTISKAKGQPREPQVYTLPPSRCELTKNQVSLSCAVKGFYPSDIAVEWESNGQPENNYKTTPPVLDSDGSFFLVSKLTVDKSRWQQGNVFSCSVMHEALHNHYTQKSLSLSPDYKDDDDK
chain: EPKSSDKTHTCPPCPAPELLGGPSVFLFPPKPKDTLMISRTPEVTCVVVDVSHEDPEVKFNWYVDGVEVHNAKTKPREEQYNSTYRVVSVLTVLHQDWLNGKEYKCKVSNKALPAPIEKTISKAKGQPREPQVCTLPPSRDELTKNQVSLWCLVKGFYPSDIAVEWESNGQPENNYKTTPPVLDSDGSFFLYSKLTVDKSRWQQGNVFSCSVMHEALHNRYTQKSLSLSP
light: DIVMTQSPLSLPVTPGEPASISCRSSQSLVHSNRFTYLHWYQQKPGQAPRLLIYKVSNRFSGVPDRFSGSGSGTDFTLKISRVEAEDVGVYYCGQGTQVPYTFGQGTKLEIKRTVAAPSVFIFPPSDEQLKSGTASVVCLLNNFYPREAKVQWKVDNALQSGNSQESVTEQDSKDSTYSLSSTLTLSKADYEKHKVYACEVTHQGLSSPVTKSFNRGEC
B5: GLS3000 N30G one-arm antibody (antibody, human IgG1, kappa, L234A L235A, N297A, name in Kabat numbering)
heavy: QVQLVESGGGVVQPGRSLRLSCAASGFTFSNAWMHWVRQAPGKGLEWVAQIKAKSNNYATYYAESVKGRFTISRDDSKNSLYLQMNSLKTEDTAVYYCRYVHYGAYYGVDAWGQGTTVTVSSASTKGPSVFPLAPSSKSTSGGTAALGCLVKDYFPEPVTVSWNSGALTSGVHTFPAVLQSSGLYSLSSVVTVPSSSLGTQTYICNVNHKPSNTKVDKKVEPKSCDKTHTCPPCPAPEAAGGPSVFLFPPKPKDTLMISRTPEVTCVVVDVSHEDPEVKFNWYVDGVEVHNAKTKPREEQYASTYRVVSVLTVLHQDWLNGKEYKCKVSNKALPAPIEKTISKAKGQPREPQVYTLPPSRCELTKNQVSLSCAVKGFYPSDIAVEWESNGQPENNYKTTPPVLDSDGSFFLVSKLTVDKSRWQQGNVFSCSVMHEALHNHYTQKSLSLSPDYKDDDDK
chain: EPKSSDKTHTCPPCPAPELLGGPSVFLFPPKPKDTLMISRTPEVTCVVVDVSHEDPEVKFNWYVDGVEVHNAKTKPREEQYNSTYRVVSVLTVLHQDWLNGKEYKCKVSNKALPAPIEKTISKAKGQPREPQVCTLPPSRDELTKNQVSLWCLVKGFYPSDIAVEWESNGQPENNYKTTPPVLDSDGSFFLYSKLTVDKSRWQQGNVFSCSVMHEALHNRYTQKSLSLSP
light: DIVMTQSPLSLPVTPGEPASISCRSSQSLVHSNRGTYLHWYQQKPGQAPRLLIYKVSNRFSGVPDRFSGSGSGTDFTLKISRVEAEDVGVYYCGQGTQVPYTFGQGTKLEIKRTVAAPSVFIFPPSDEQLKSGTASVVCLLNNFYPREAKVQWKVDNALQSGNSQESVTEQDSKDSTYSLSSTLTLSKADYEKHKVYACEVTHQGLSSPVTKSFNRGEC
B6: GLS3000 N30H one-arm antibody (antibody, human IgG1, kappa, L234A L235A, N297A, name in Kabat numbering)
heavy: QVQLVESGGGVVQPGRSLRLSCAASGFTFSNAWMHWVRQAPGKGLEWVAQIKAKSNNYATYYAESVKGRFTISRDDSKNSLYLQMNSLKTEDTAVYYCRYVHYGAYYGVDAWGQGTTVTVSSASTKGPSVFPLAPSSKSTSGGTAALGCLVKDYFPEPVTVSWNSGALTSGVHTFPAVLQSSGLYSLSSVVTVPSSSLGTQTYICNVNHKPSNTKVDKKVEPKSCDKTHTCPPCPAPEAAGGPSVFLFPPKPKDTLMISRTPEVTCVVVDVSHEDPEVKFNWYVDGVEVHNAKTKPREEQYASTYRVVSVLTVLHQDWLNGKEYKCKVSNKALPAPIEKTISKAKGQPREPQVYTLPPSRCELTKNQVSLSCAVKGFYPSDIAVEWESNGQPENNYKTTPPVLDSDGSFFLVSKLTVDKSRWQQGNVFSCSVMHEALHNHYTQKSLSLSPDYKDDDDK
chain: EPKSSDKTHTCPPCPAPELLGGPSVFLFPPKPKDTLMISRTPEVTCVVVDVSHEDPEVKFNWYVDGVEVHNAKTKPREEQYNSTYRVVSVLTVLHQDWLNGKEYKCKVSNKALPAPIEKTISKAKGQPREPQVCTLPPSRDELTKNQVSLWCLVKGFYPSDIAVEWESNGQPENNYKTTPPVLDSDGSFFLYSKLTVDKSRWQQGNVFSCSVMHEALHNRYTQKSLSLSP
light: DIVMTQSPLSLPVTPGEPASISCRSSQSLVHSNRHTYLHWYQQKPGQAPRLLIYKVSNRFSGVPDRFSGSGSGTDFTLKISRVEAEDVGVYYCGQGTQVPYTFGQGTKLEIKRTVAAPSVFIFPPSDEQLKSGTASVVCLLNNFYPREAKVQWKVDNALQSGNSQESVTEQDSKDSTYSLSSTLTLSKADYEKHKVYACEVTHQGLSSPVTKSFNRGEC

In this assay the target is T1, CD3ε homodimer protein (human, UniProt P07766 23-126, limits assumed).
T1 construct: also called CD3 (CD3ε)
T1 sequence (P07766 23-126 limits assumed): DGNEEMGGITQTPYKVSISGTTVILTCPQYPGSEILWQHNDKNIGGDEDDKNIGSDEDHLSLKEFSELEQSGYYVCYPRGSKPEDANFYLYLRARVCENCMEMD
Kind of assay: SPR Biacore T200, CD3ε homodimer on chip.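 Further: Light-chain single-residue variant antibodies injected over amine-coupled CD3ε homodimer on a CM4 chip at 25 °C, bound amount divided by that of the GLS3000-containing antibody.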 Background: SPR reads the build-up and loss of mass on a sensor chip optically.
Turning to B1, the “ratio of amount bound vs unaltered GLS3000” value (“ratio of amount bound” below) is 0.44.

Regarding B2, the “ratio of amount bound” value is 0.61. In the case of B3, the “ratio of amount bound” value was determined as 1.65. The figure for B4 is 1.1; for B5 it is 0.47; for B6 it is 0.98.
